Data: the DeepSol protein solubility set

test: soluble on expression in E. coli; label from the status in PepcDB or PDB records

| Sequence | soluble on expression in E. coli |
| --- | --- |
| MAIYSFKMENISRGEGQSSVNSAAYRHRKVFFDNRTGEVCGRKTAHKKDLAFAQIFAPENTPSDLIVDSETLWNAVEASEKRKDARLAKEFKIALPAELTPEQSIELTKAFVLEHFTKQGIITDVVIHDINGHNPHIHIMGTTREVLSTGFGKKVREWDKPETLDSWRKGWQNICNEFLDLYGHDERIDHRSIRVQYKEALEQATAAATNEEKAIWLAKAIETNRDPILHIPRDRWGTLAAQEQRAAEQAIRDEQKKEAVEAYFTFKDLPLDIVVDVASFRVHALAEPEEIVIPDNTGKGSSTGSQKPVLVAPVPHTRTTLKTPSTSTARTLKRAPVKVKRKKVEPRQSGVFKRFTLLVVDYIREKFVWAKKKPVPVSVDAEHDERIAENYVFDEVQGIYVPRAEHERRARFNSDTYSPTPDEIRRFPRRPLKPDQANNTLDYIPTFSWDRKPSVLQLKPSGYRDKELEHHHHHH | not soluble |
| MAKEKIIVENEQSVEEKLAALSKLQNTLSEIDKIKTLRGELPLEVQDLEDEIAGMQTRLENFTAGSKQLNQAVTTEKEKISTAKTLLEKYKKQLDEVRNNREFDNLSKEIEFQELEIQLSEKKIKEYNVEIQQRKTDIATLKEVLEEHSEVLAEKRGELDTIIAETKQEEEKLREKAKKLEAKIEPRLLTAFKRIRKAAHNGLAVVPVERDACGGCFNKIPPQKQLDVKLRKKIIVCEYCGRIMVDPEMGA | not soluble |
| MAKELCFEGITLKAFDEQYRSAINDFDLNERQQIYSSLPKEVIDDAINDVDRIANVAINDKNEVVGFFVLHRYYQHEGYDTPENVVYIRSLSINEKYQGFGYGTKIMMSLPQYVQGVFPDFNHLYLVVDAENDNAWNLYERAGFMHTATKEEGPIGKERLYYLDLDSKHVSSLKLEEESRSEVTNVHIINLMIDGQKVGFIALEQIGERMNIAAIEVDKSYRFNGIGSSALRQLPTYLRKNYDNLNVITMILFGENNDFKPLCLNSNFVEIEQTDDYVVFEKYLNY | not soluble |
| MAKINELLRESTTTNSNSIGRPNLVALTRATTKLIYSDIVATQRTNQPVAAFYGIKYLNPDNEFTFKTGATYAGEAGYVDREQITELTEESKLTLNKGDLFKYNNIVYKVLEDTPFATIEESDLELALQIAIVLLKVRLFSDAASTSKFESSDSEIADARFQINKWQTAVKSRKLKTGITVELAQDLEANGFDAPNFLEDLLATEMADEINKDILQSLITVSKRYKVTGITDSGFIDLSYASAPEAGRSLYRMVCEMVSHIQKESTYTATFCVASARAAAILAASGWLKHKPEDDKYLSQNAYGFLANGLPLYCDTNSPLDYVIVGVVENIGEKEIVGSIFYAPYTEGLDLDDPEHVGAFKVVVDPESLQPSIGLLVRYALSANPYTVAKDEKEARIIDGGDMDKMAGRSDLSVLLGVKLPKIIIDE | soluble |
| MAKKKKEILFCDYYEDWVETYKVGAIEDVTLNKYYVAARQLRDICPKLLMSDFSRKDYQLIMNEYGKTHEKQTAKDFHHHIKAAILDAYHDGLLKSDPTYRAVIKGKEPGKKKLEHHHHHH | soluble |
| MAKKKKKKSFNTTRPTDPPVYPVTVPFLGHIVQFGKNPLEFMQRCKRDLKSGVFTISIGGQRVTIVGDPHEHSRFFSPRNEILSPREVYTIMTPVFGEGVAYAAPYPRMREQLNFLAEELTIAKFQNFVPAIQHEVRKFMAENWKEDEGVINLLEDCGAMIINTACQCLFGEDLRKRLNARHFAQLLSKMESSLIPAAVFMPWLLRLPLPQSARCREARAELQKILGEIIVAREKEEASKDNNTSDLLGGLLKAVYRDGTRMSLHEVCGMIVAAMFAGQHTSTITTSWSMLHLMHPKNKKWLDKLHKEIDEFPAQLNYDNVMDEMPFAERCVRESIRRDPPLLMVMRMVKAEVKVGSYVVPKGDIIACSPLLSHHDEEAFPNPRLWDPERDEKVDGAFIGFGAGVHKCIGQKFALLQVKTILATAFREYDFQLLRDEVPDPDYHTMVVGPTLNQCLVKYTRKKKLPSHHHHHH | soluble |
| MAKKNPIQPGPEGYIPTPAAFQGCDLPPPGKALLYGEIVDEEVAMREAAKALLTRRNPTIFPGPLVLWGWNADAMEKAKAVLELAMEIPNCRIIPMPDYRPKYPKIDPEAEINPNHPNLTILHNKIEACIFVGVHCHYANLSLRMIRAGTNCFTIALCAEMGHEDAMVSLRDVHADEIRKFRDVVVEVRKELGIEWEPKLPPENPSLPKEDWVKISPLDFGEYAYLLIPRRGEIVEESE | not soluble |
| MAKLFFRYAAMNSGKSTQLLQIANNYESMDKKVALYTSAIDDRYGVGMITSRLNIQRESNTFDAGFDFLAHDYGDTACVLVDEAQFMTPEQAQQLHRLAHKRNIPVICFGLRTDFQGHPFPGSAWLLSLADDVEEIKTICHCGRKATMHIRIDGDGRRVKEGPQVEIGGEARYRAVCGRCFHHDLEHHHHHH | soluble |
| MAKQKDNYLDYVPKHNSLFECRENKKGHVEVKVHNKGIFNRIAQLIARKPRYSYIELDDFGTFVWHSIDGVRSIYDIGQLVKEHFGDKAEPLYERLCYFIKLLHKNQFIVYMNKINKQINK | not soluble |
| MAKRKGKGTRSESNRNLEELRRKAVEIVKRLEKVYLNPRLELEYENAFQLLVMAILAAQESDKVVNKVSKEFFKKYKTPQDIARANLEELEEDLKHINFYRRKAKLIKECCEKLIELYKGEVPKSVGELVKLPGVGRKTANMVIGGAYNLPAIIVDRHVHRVVERISLSKQKNPDKMEMELSEIVPQELWTKFSLLLLNHGKTICKARNPECEKCPILDLCEYGQKNLKGRK | soluble |
| MAKSSERFESLRRDIDALARRLDVPSVLIMRSLPRHMRVEASAGRLEDTYPIGAEGRKSVHEDGAKPLYCERVVDRDAPLHVRDSRQETEWAGNEDEVEFGLSNYLGYPVHAPDGTPYGTVCVLDSRPRDYSAEERALLEELRRKVEALLAETVS | not soluble |
| MAKVVSKANQSQGMLMFKLTLQQNFAIGTLKVREIVPYMPTTKIPYSHHHVIGTVTIRDLTVPVIDMSAAVGFRPITQEEYKNCYLIVTDCLRTVVAFMVRSIEKIIECDWKAIETPPASAGKNIFVTGITRYGDQTVQMLDVELLLSKIYPQYENANIPMLTDVERERLKA | not soluble |
| MAKYNEKKEKKRIAKERIDILFSLAERVFPYSPELAKRYVELALLVQQKAKVKIPRKWKRRYCKKCHAFLVPGINARVRLRQKRMPHIVVKCLECGHIMRYPYIKEIKKRRKEKMEYGGLVPR | soluble |
| MALDLTGYLDRINYRGATDPTLDVLRDLVSAHTGAIAFENLDPLMGVPVDDLSAEALADKLVDRRRGGYCYEHNGLIGYVLAELGYRVRRLAGRVVWLAPPDAPTPAQTHTVLAVTFPGCQGPYLVDVGFGGMTPTAPLRLETGTVQQTALEPYRLDDRGDGLVLQAMVRDEWQALYEFSTLTRPQVDLRVGSWFVSTHPTSHFVTGLMAATVADDARWNLMGRNLAIHRRGGTEKILLEDAAAVVDTLGDRFGINVADVGERGRLEARIDKVCFGAENR | soluble |
| MALKKAMLLIKNGKILTMTGVNYDSGSVLIDNGKIIKVGENIDVDESCEIIDADGFWVMPGIIEAHCHVGIQEEKRGFEGNDCNEMTNPVTPYLRALDGINPMDSAFYTALTAGITGIMVGPGSANVVGGQWMFLKTYGRAIDKMVVLQPSAMKIAFGENPKANYDKKNMMPSTRIAIAAMLREELFEAQQYYEKRKNAEKSGDSFNKEFRKECWVPVFDKKIPLKAHVHRADDILTAIRIAKEFNLNLTLDHCTEGHLVAKEIKESGFPAIVGPTLTSRNKIETQYADFKTAGILHNEGVKVAITTNHPVTRIQDLLICAGLAAKEGLGIEEGLKAITINPAEICNVANRVGSIEVNKDADIAIFDGNPMETFTKTMYTIINGEIVYSLKDKNYEGHHHHHH | soluble |
| MALKLKLKMPSSSASNSPQPPPPESHSPEQPKLPKLKIKAPSKTPVSSTPDSSMALKRPQEEQSTGENPKKLKLSLSKTKENGRPKGLPRVRIKPTRIPGEGYDSEAPDLEDDPLIEQGIIIRFLNDSNLDFVHNAVDSGDLTGLNVKWVTKEKAIVNVNSILYSARLIDLPTVTEIFKTVDRKNVFKTLDICQILLVLHVVDPAKLNIDTDFEVPEEFLFNHPFYKYVKNNEIKKKRMVLKDGLLQPFQDVYRRFRPTKVDHRVILDIESKVDELIKLDNEADESHFELLDSKTAQQSRFGTSATPSAVNSPVAMRMEGPEVEPGRFSNVQDHENEEDDEEEDEEDYDDDDLQDDDMELHLEQELEKVLDGELSESEVTIPTSMAGILTNDVGNGISIMTNGEQSEDIDGDEQDDEEEEEEEEEDGDDEEEEEEEEEEENEEGDSESGKQHVKLLEEEIFELEKAVAHHQKNLSTASSKMLRMKFQNTYTSLKASLDSKKRDLAKLLDEQEQQQEQKQPKTTVDEKSQEAEHSVEAEAEIEAQVEADAEDGDEDEDIDQGDDMNQENNNNNGDSDIDEDNADDLDDLF | not soluble |
| MALLHGGQLQQVAKQYNIPPSDWIDVSTGIAPISYPIPIIPLSVWQQLPQQNPDLIAAAQQYYQCSQLMITNGSQAIIKALPALYRQKNAESQDVYLPERGYKEHAHAWKNAGYNLHFYQEFLPEMSEILPNSVLVIINPNNPTGQFFNGQVIAQYQERLKLINGLLVLDEAFIDVVPGNQSYYNQLENSHSLVLRSFGKFFGLAGIRIGFLVANGYWCGAFKELLGPWQINGPAQLIAQHALQDTSWQTRQKDTLTRLRIAQEHMLRQAFPQIILREINGCNLFLTLSFHQQDTAKKLYHLLCQQGVYCRLADEQDTLRFGITTEELLERLTLACRQAYQQLT | not soluble |
| MALPKPSDGTLPAEVQGRGQRRRLVWTPSQSKALQACFERNPYPGITTRERLAQAIGIPEPRVQILFQNERSCQLRQHWH | soluble |
| MALRWGIVSVGLISSDFTAVLQTLPRSEHQVVAVAARDLSRAKEFAQKHDIPKAYGSYEELAKDPNVEVAYVGTQHPQHKAAVMLCLAAGKAVLCEKPMGVNAAEVREMVTEARSRGLFLMEAIWTRFFPASEALRSVLAQGTLGDLRVARAEFGKNLTHVPRAVDWAQAGGALLDLGIYCVQFISMVFGGQKPEKISVMGRRHETGVDDTVTVLLQYPGEVHGSFTCSITAQLSNTASVSGTKGMAQLLNPCWCPTELVVKGEHKEFLLPPVPKNCNFDNGAGMSYEAKHVRECLRKGLKESPVIPLVESELLADILEEVRRAIGVTFPQDKH | soluble |
| MALSHSVKERTISENSLIILLQGLQGQITTVDLRDESVARGRIDNVDAFMNIRLANVTYTDRWGHQVELDDLFVTGRNVRYVHIPDGVDITATIEQQLQIIHRVRNFGGKGQGRREFPSKRP | soluble |
| MALVLTFLGKGGVGRTTVAIAAAKKLAQAGQRVLVLGQDPSLAWQWGITLSETAQGVEANVDGLLLSSTHLLERGWEKLKEVEAQYLRSPALKNIYGEELGVLPGMDEVLVLNALREYELSGRYDVLIYDGPGNLSTLRMLGIPEIASWYWRRFQKVLADSEVVQTLSPFVQPVASAVLSVNWSPDQMLNHPDGPQNLLQQGKAAIADPNRFAAYLVTSTDSLAQKAAQSYWGGAQQVGVTVKGVIQTPLGNGSLDANLFDPLLIAALPSYNQGNWQPLMDALPNPQAMGSAPRPLEIDVNARQVKVFLPGFDKRQVKLTQSGPELTIEAGDQRRNIDLPGNLRGKGVTGAKFQGGYLIVSFLEHHHHHH | not soluble |
| MAMKERYLIIDGYNMIGQSPTLSAIAKENLEEARMQLIDAIANYNAVISDEIICVFDAYDQSGVEREYMYHGVKTIFTKEKETADSFIERYVYELYDKHTKHITVVTSDMSEQHAIFGSGAYRISSREMWRDLKENEIDVSKSLDDISENKPRTRIPLSSEILAEFEKIRRGHHKKLEHHHHHH | not soluble |
| MAMNNILGLFAHSPLKPLQKHSEKVTECSDLLIPFFQTTFSKNWEQAEEKRLEISQCEREADSLKREIRLKLPRGLFLPIDRTDLLELVTQQDKLANYAKDIAGRMIGRQFGIPEEMQEEFLHYVKRSLDAIHQAHRVIEEMDKLLETGFKGRELKLVNDMIQELDSIEDDTDQMQIKLRKMLYTIESRYNPIDVMFLYKIIEWVGVLADQAQRVGSRIELMLARS | not soluble |
